Assays:
[1] = tested on: SSTR-positive CA20948 pancreas tumors; assay: Organ distribution study in CA 20948 tumor-bearing Lewis rats; conditions: rat, in vivo
Procedure: As explained in more detail below, PNA peptide conjugates were synthesized by means of Boc chemistry.
Organ distribution studies of the conjugate were carried out with tumor-bearing rats. […] The tumor cells are thawed, washed with PBS and suspended carefully. The cell suspension was transplanted subcutaneously into the flank of male Lewis rats (220-250 g) (about 2×10^6 cells in 0.1 ml). […] After 1 hour, the animals were killed and dissected. Various organs/tissue samples (tumor, blood, heart, lung, liver, stomach, kidney, spleen, muscle) were removed, weighed and the activity in the gamma counter was determined. In this way, % ID/g values could be obtained. The competitive uptake could be examined by injection of 100 μg octreotide, 30 min. prior to the application of the radioactive octreotide derivative.

[2] = in vivo; cited from earlier work

Structure (SMILES): Cc1cn(CC(=O)N(CCNC(=O)CN(CCNC(=O)CN(CCNC(=O)CN(CCNC(=O)CN(CCNC(=O)CN(CCNC(=O)CN(CCNC(=O)CN(CCNC(=O)CN(CCNC(=O)CN(CCNC(=O)CN(CCNC(=O)CN(CCNC(=O)[C@@H](N)Cc2ccc(O)c(I)c2)C(=O)Cn2cnc3c(N)ncnc32)C(=O)Cn2cnc3c(=O)[nH]c(N)nc32)C(=O)Cn2ccc(N)nc2=O)C(=O)Cn2cnc3c(=O)[nH]c(N)nc32)C(=O)Cn2cc(C)c(=O)[nH]c2=O)C(=O)Cn2cnc3c(=O)[nH]c(N)nc32)C(=O)Cn2ccc(N)nc2=O)C(=O)Cn2cnc3c(=O)[nH]c(N)nc32)C(=O)Cn2ccc(N)nc2=O)C(=O)Cn2ccc(N)nc2=O)C(=O)Cn2cnc3c(N)ncnc32)CC(=O)NCCN(CC(=O)NCCN(CC(=O)NCCN(CC(=O)N[C@H](Cc2ccccc2)C(=O)N[C@H]2CSSC[C@@H](C(=O)N[C@H](C(=O)O)[C@@H](C)O)NC(=O)[C@H]([C@@H](C)O)NC(=O)[C@H](CCCCN)NC(=O)[C@@H](Cc3c[nH]c4ccccc34)NC(=O)[C@H](Cc3ccccc3)NC2=O)C(=O)Cn2ccc(N)nc2=O)C(=O)Cn2ccc(N)nc2=O)C(=O)Cn2ccc(N)nc2=O)c(=O)[nH]c1=O [PNA conjugate]
- organ distribution compared with 3-Tyr octreotide (in words) [1]: approximately the same concentration in tumor and pancreas
- uptake into the tumor tissue (in words) [1]: selective uptake, which could be inhibited with an excess of octreotide

Structure (SMILES): C[C@@H](O)[C@@H]1NC(=O)[C@H](CCCCN)NC(=O)[C@@H](Cc2c[nH]c3ccccc23)NC(=O)[C@H](Cc2ccccc2)NC(=O)[C@@H](NC(=O)[C@H](N)Cc2ccccc2)CSSC[C@@H](C(=O)N[C@H](CO)[C@@H](C)O)NC1=O [Octreotide]
- biological half-life [2]: about 90 min.

Reference: US20010029035A1, “Oligonucleotide conjugates” (priority 2000, published 2001)
